T1: GST-PPARγ fusion protein (immobilized PPARγ) (UniProt P37238 1-505)
T1 construct: also called FST-PPARγ fusion protein; bacterially expressed PPARγ immobilized on beads; not shown: glutathione S-transferase (GST) moiety; printed as 'FST'
T1 sequence (looked up): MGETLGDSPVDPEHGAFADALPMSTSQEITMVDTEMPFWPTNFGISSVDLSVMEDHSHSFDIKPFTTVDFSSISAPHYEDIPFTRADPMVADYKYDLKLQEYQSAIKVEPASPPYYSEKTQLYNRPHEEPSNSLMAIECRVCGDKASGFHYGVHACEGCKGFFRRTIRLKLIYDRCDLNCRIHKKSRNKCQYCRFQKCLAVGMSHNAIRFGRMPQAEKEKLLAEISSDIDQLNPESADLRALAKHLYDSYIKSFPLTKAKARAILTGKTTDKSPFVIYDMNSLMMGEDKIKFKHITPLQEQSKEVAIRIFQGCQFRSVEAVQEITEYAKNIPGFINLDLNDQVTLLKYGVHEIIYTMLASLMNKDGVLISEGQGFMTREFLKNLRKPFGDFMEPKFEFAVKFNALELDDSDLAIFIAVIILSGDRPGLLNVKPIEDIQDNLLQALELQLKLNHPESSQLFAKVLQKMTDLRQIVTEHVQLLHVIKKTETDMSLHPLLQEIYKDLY

T2: full-length mouse PGC-1 (aa 1-797) (mouse, UniProt O70343 1-797, [35S]methionine-labeled in the pull-down assays)
T2 construct: In vitro reticulocyte translation product in the pull-downs; the same full-length protein was expressed from pSV-SPORT in the transcription assays; also called reticulocyte-translated PGC-1
T2 sequence: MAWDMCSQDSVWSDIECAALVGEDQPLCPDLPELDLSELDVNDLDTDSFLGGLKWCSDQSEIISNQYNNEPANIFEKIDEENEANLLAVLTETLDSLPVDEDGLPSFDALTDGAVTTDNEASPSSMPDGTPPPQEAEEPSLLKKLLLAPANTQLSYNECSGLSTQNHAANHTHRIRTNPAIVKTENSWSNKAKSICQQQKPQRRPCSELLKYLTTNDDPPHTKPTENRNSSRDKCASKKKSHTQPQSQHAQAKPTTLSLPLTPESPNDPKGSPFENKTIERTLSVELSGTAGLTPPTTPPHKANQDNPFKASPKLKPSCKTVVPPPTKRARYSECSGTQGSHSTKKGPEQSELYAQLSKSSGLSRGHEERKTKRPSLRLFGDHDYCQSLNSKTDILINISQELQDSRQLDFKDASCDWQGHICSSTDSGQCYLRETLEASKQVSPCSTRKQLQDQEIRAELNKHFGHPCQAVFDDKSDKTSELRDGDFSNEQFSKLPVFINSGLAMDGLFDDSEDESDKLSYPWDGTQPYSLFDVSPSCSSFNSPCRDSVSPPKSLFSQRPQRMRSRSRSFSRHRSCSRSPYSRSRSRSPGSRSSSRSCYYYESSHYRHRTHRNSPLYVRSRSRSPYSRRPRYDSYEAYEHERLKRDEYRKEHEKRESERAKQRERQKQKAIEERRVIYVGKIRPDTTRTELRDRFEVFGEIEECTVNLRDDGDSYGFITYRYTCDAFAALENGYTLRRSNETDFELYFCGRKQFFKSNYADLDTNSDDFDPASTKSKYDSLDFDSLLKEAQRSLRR

B1: PGC-1 1-292 (other)
chain: MAWDMCSQDSVWSDIECAALVGEDQPLCPDLPELDLSELDVNDLDTDSFLGGLKWCSDQSEIISNQYNNEPANIFEKIDEENEANLLAVLTETLDSLPVDEDGLPSFDALTDGAVTTDNEASPSSMPDGTPPPQEAEEPSLLKKLLLAPANTQLSYNECSGLSTQNHAANHTHRIRTNPAIVKTENSWSNKAKSICQQQKPQRRPCSELLKYLTTNDDPPHTKPTENRNSSRDKCASKKKSHTQPQSQHAQAKPTTLSLPLTPESPNDPKGSPFENKTIERTLSVELSGTAG
modifications: [35S]methionine-labeled
notes: In vitro translated; still contains the LXXLL motif (aa 142-146)
B2: GST fusion of PPARγ 228-505 (receptor, mouse, UniProt P37238 228-505, looked up)
chain: DIDQLNPESADLRALAKHLYDSYIKSFPLTKAKARAILTGKTTDKSPFVIYDMNSLMMGEDKIKFKHITPLQEQSKEVAIRIFQGCQFRSVEAVQEITEYAKNIPGFINLDLNDQVTLLKYGVHEIIYTMLASLMNKDGVLISEGQGFMTREFLKNLRKPFGDFMEPKFEFAVKFNALELDDSDLAIFIAVIILSGDRPGLLNVKPIEDIQDNLLQALELQLKLNHPESSQLFAKVLQKMTDLRQIVTEHVQLLHVIKKTETDMSLHPLLQEIYKDLY
notes: not shown: glutathione S-transferase (GST) moiety of pGEX 5X2

Columns and labels:
[1] = biological target: T1, GST-PPARγ fusion protein (immobilized …); assay: pull-down of in vitro-translated 35S-labeled PGC-1 deletion with immobilized GST-PPARγ
Source text: These were then translated into vitro with an [³⁵S]methionine-label. One microliter of each in vitro translation reaction was resolved by SDS-PAGE and autoradigraphed.

[2] = biological target: T2, full-length mouse PGC-1 (aa 1-797); assay: pull-down of in vitro-translated PGC-1 with GST-PPARγ deletion
Source text: Most of the nuclear hormone receptor coactivators identified to date interact with the C-terminal AF-2 domain, which is responsible for ligand-dependent transcriptional activation.

| Binder | binding result [1] | binding result [2] |
| --- | --- | --- |
| B1 | no binding | – |
| B2 | – | no binding |

From patent publication US20030229204A1 (Dana-Farber, published 2003)
